Reference: patent US20090011988A1 (Genentech, published 2009)
Positions of bridges follow the written chain, without caps; N, C: chain ends. No end group written: not given here.

Legend:
human IGFBP-1 [1] = target: T1, human IGFBP-1 (human, UniProt P08833 26-259); experiment: competitive phage ELISA
T1 sequence (looked up): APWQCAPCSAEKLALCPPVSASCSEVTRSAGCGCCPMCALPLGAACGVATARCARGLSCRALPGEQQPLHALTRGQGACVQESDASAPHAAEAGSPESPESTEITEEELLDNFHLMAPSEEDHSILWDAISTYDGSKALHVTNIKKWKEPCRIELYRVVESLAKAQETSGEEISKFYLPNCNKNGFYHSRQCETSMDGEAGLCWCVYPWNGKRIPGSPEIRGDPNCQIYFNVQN
Procedure: E. coli cells (XL1-Blue, Stratagene) freshly transformed with phagemid vector were grown overnight in 5 mL 2YT medium (Sambrook et al., supra) in the presence of M13-VCS helper phage (Stratagene). Phage particles were harvested and resuspended in PBS buffer as described in Lowman, H. B., “Phage Display of Peptide Libraries on Protein Scaffolds,” in Cabilly, S. (ed.), Combinatorial Peptide Library Protocols (Humana Press Inc.: Totowa, N.J., 1998), pp. 249-264. Then phage concentrations were normalized to yield a maximal ELISA signal of 0.2-0.4 for each mutant (Lowman, in Cabilly, S. (ed.), supra). Threefold serial dilutions of soluble competitor were prepared on non-absorbent microtiter plates (Nunc, F, 96 wells) with binding buffer (0.5% TWEEN 20%/PBS) containing phage at the previously determined concentrations. […] After blocking, the plates containing immobilized target were washed with 0.05% TWEEN™/PBS buffer and subsequently incubated with 80 μl/well of the premixed phage-competitor solutions for 1 hour at room temperature. […] IC₅₀ values were determined by fitting the binding data to a generic saturation curve (Lowman, in Cabilly, S. (ed.), supra). At least two individual clones of each IGF-1 mutant were assayed. Numbers in Table XIII represent mean±standard deviation of individually assessed IC₅₀ values.

human IGFBP-1 [2] = target: T1, human IGFBP-1; experiment: competitive phage ELISA, value as restated in Table XIV (Table XIII prints 7.0 for the same pair)
[3] = target: IGF-1 G1S-A70V displayed on phage (human; bacteriophage M13); experiment: competitive phage ELISA: phage on an IGFBP-3-coated plate (1 µg/ml), competed by soluble IGFBP-3; OD492, mean ± SD, n=2
[4] = target: IGF-1 G1S-A70V displayed on phage (human; bacteriophage M13); experiment: competitive phage ELISA: phage displaying G1S-A70V IGF-1 on an IGFBP-3-coated plate (1 µg/ml), competed by soluble IGFBP-3; OD492
human IGFBP-1 [5] = target: T1, human IGFBP-1; experiment: inhibition assays
human IGFBP-1 [6] = target: T1, human IGFBP-1; experiment: BIAcore kinetics, IGFBP-1 coupled to chip
Procedure: For each dilution of peptides, a global fit of the sensorgram data was performed using a 1:1 Langmuir binding model.

human IGFBP-1 [7] = target: T1, human IGFBP-1; experiment: ELISA inhibition assay
[8] = target: IGF-1 G1S-A70V displayed on phage (human; bacteriophage M13); experiment: competitive phage ELISA: phage on an IGFBP-3-coated plate (1 µg/ml), competed by soluble IGFBP-1; OD492, mean ± SD, n=2
[9] = target: IGF-1 G1S-A70V displayed on phage (human; bacteriophage M13); experiment: competitive phage ELISA: phage displaying G1S-A70V IGF-1 on an IGFBP-1-coated plate (1 µg/ml), competed by soluble IGFBP-1; OD492
human IGFBP-1 [10] = target: T1, human IGFBP-1; experiment: BIAcore inhibition assay; reference
human IGFBP-1 [11] = target: T1, human IGFBP-1; experiment: BIAcore inhibition, 9-10 nM IGFBP-1 to immobilized IGF-1
human IGFBP-1 [12] = target: T1, human IGFBP-1; experiment: BIAcore inhibition assay
human IGFBP-1 [13] = target: T1, human IGFBP-1; experiment: BIAcore inhibition assay; remark: listed apart in the source
Procedure: Peptides were assayed in a BIAcore™ assay as described in WO 98/45427, supra.

IGF-1 F16A displayed on phage (from UniProt P69168 267-424) (ligand)
relative IC50 (mut/G1S-A70V) (human IGFBP-1 [1]): 7
relative IC50 (mut/G1S-A70V) (human IGFBP-1 [2]): 6

recombinant human IGFBP-3 (from UniProt P17936 28-291)
IC50 (read off the curve) [3]: 0.7 nM
IC50 [4]: 0.5 nM

B1: BP1-25 (peptide)
peptide: EARVCRAGPLQWLCEKYFSTY
modifications: disulfide 5-14
fold affinity improvement over BP1-16 (human IGFBP-1 [5]): ~20 fold
Kd (human IGFBP-1 [6]): 42 nM

B2: BP1-26 (peptide)
peptide: CRAGPLQWRCEKYF
modifications: disulfide 1-10
notes: also called BP1-16 L9R
binding result (human IGFBP-1 [7]): no binding (tested: >570-fold the IC50 of BP1-16)

B3: BP1-32 (peptide)
peptide: CRAGPRQWLCEKYF
modifications: disulfide 1-10
notes: also called BP1-16 L6R
binding result (human IGFBP-1 [7]): no binding (tested: >1000-fold the IC50 of BP1-16)

B4: human IGFBP-1 (protein, UniProt P08833 26-259, looked up)
chain: APWQCAPCSAEKLALCPPVSASCSEVTRSAGCGCCPMCALPLGAACGVATARCARGLSCRALPGEQQPLHALTRGQGACVQESDASAPHAAEAGSPESPESTEITEEELLDNFHLMAPSEEDHSILWDAISTYDGSKALHVTNIKKWKEPCRIELYRVVESLAKAQETSGEEISKFYLPNCNKNGFYHSRQCETSMDGEAGLCWCVYPWNGKRIPGSPEIRGDPNCQIYFNVQN
IC50 (read off the curve) [8]: 8 nM
IC50 [9]: 8.5 nM

B5: BP1-01 (peptide)
peptide: CRAGPLQWLCEKYFG
modifications: disulfide 1-10
fold potency reduction, IC50 (BP1-01)/IC50 (mut) (human IGFBP-1 [10]): 1

B6: BP1-625 (peptide)
peptide: GQQSCAAGPLQWLCEHYFSTYGR
modifications: not fully specified (bridges); cysteine pairing not given here
fold improved potency over BP1-01 (human IGFBP-1 [11]): ~20 fold

B7: (i+7)B (peptide)
peptide: Ac-LEWLAEKYEG
modifications: linker 2-9 via 1,5‑diaminopentane
binding result (human IGFBP-1 [12]): no binding (tested: >360-fold weaker than BP1-01)
fold potency reduction, IC50 (BP1-01)/IC50 (mut) (human IGFBP-1 [13]): > 360
